The values that follow come from PMC11707139.

In this assay the target is piggyBat transposase (Myotis lucifugus). Briefly: AUC; sedimentation velocity, ~3.1 µM purified pBat without DNA, 500 mM NaCl, 25 mM Tris-HCl pH 7.4, 0.5 mM TCEP, 50,000 rpm, 20 °C, c(s) analysis.

The term stoichiometry N denotes the number of molecules, sites or subunits per partner or assembly. As to piggyBat transposase (enzyme), the stoichiometry N turned out to be 2.
